Data taken from publication PMC4707517.

How the values were obtained:
[1] = target: H1FL (H1 11-193 in Table 1, i.e. residues 1-193) S19C (mouse) (UniProt P10922); experiment: fluorescence (de)quenching; details: 150 mM KCl (20 mM KCl for four-way junction and 4WJDNA), room temperature pre-incubation for competition, buffer and pH not given (HI-FI assay, ref 23)
[2] = target: H1 1-121 (delta72) S19C (mouse) (UniProt P10922); experiment: FRET competition; details: 150 mM KCl (20 mM KCl for four-way junction and 4WJDNA); room temperature pre-incubation for competition; buffer and pH not given (HI-FI assay, ref 23)
[3] = target: H1 1-96 (delta97) S19C (mouse) (UniProt P10922); experiment: FRET competition; details: 150 mM KCl (20 mM KCl for four-way junction and 4WJDNA); room temperature pre-incubation for competition; buffer and pH not given (HI-FI assay, ref 23)
[4] = target: H1FL (H1 11-193 in Table 1, i.e. residues 1-193) S19C (mouse) (UniProt P10922); experiment: FRET competition; details: 150 mM KCl (20 mM KCl for four-way junction and 4WJDNA), room temperature pre-incubation for competition, buffer and pH not given (HI-FI assay, ref 23)
[5] = target: H1FL (H1 11-193 in Table 1, i.e. residues 1-193) S19C (mouse) (UniProt P10922); experiment: FRET; details: internal amino-C6-dT; 150 mM KCl (20 mM KCl for four-way junction and 4WJDNA); room temperature pre-incubation for competition; buffer and pH not given (HI-FI assay, ref 23)
[6] = target: H1 1-121 (delta72) S19C (mouse) (UniProt P10922); experiment: FRET; details: internal amino-C6-dT; 150 mM KCl (20 mM KCl for four-way junction and 4WJDNA); room temperature pre-incubation for competition; buffer and pH not given (HI-FI assay, ref 23)
[7] = target: H1 1-96 (delta97) S19C (mouse) (UniProt P10922); experiment: FRET; details: internal amino-C6-dT; 150 mM KCl (20 mM KCl for four-way junction and 4WJDNA); room temperature pre-incubation for competition; buffer and pH not given (HI-FI assay, ref 23)
[8] = target: H1 1-121 (delta72) S19C (mouse) (UniProt P10922); experiment: fluorescence (de)quenching; details: 150 mM KCl (20 mM KCl for four-way junction and 4WJDNA); room temperature pre-incubation for competition; buffer and pH not given (HI-FI assay, ref 23)
[9] = histone variant H2A.Z, mouse histones

4WJ15 four-way junction was tested, and the Kd [1] was 0.035 nM.

4WJDNA linear 30 bp gave a Kd [1] of 3.75 nM.

“AGGCCTGAGAATCCGGTGCCGAGGCCGCTCAATTGGTCGTAGACAGCTCTAGCACCGCTTAAACGCACGTACGCGCTGTCCCCCGCGTTTTAACCGCCAAGGGGATTACTCCCTAGTCTCCAGGCACGTGTCAGATATATACATCCAGGCCTTGTGTC (double strand) [A1/10 nucleosome]” showed a Kd [2] of 43.8 nM and a Kd [3] of 140 nM.

“ATCCCTATACGCGGCCGCCCTGGAGAATCCCGGTGCCGAGGCCGCTCAATTGGTCGTAGACAGCTCTAGCACCGCTTAAACGCACGTACGCGCTGTCCCCCGCGTTTTAACCGCCAAGGGGATTACTCCCTAGTCTCCAGGCACGTGTCAGATATATACATCCGAT (double strand) [A18/1 nucleosome]” gave a Kd [4] of 0.135 nM, a Kd [2] of 8.08 nM and a Kd [3] of 208 nM.

With “ATCTAATACTAGGACCCTATACGCGGCCGCATCGGAGAATCCCGGTGCCGAGGCCGCTCAATTGGTCGTAGACAGCTCTAGCACCGCTTAAACGCACGTACGCGCTGTCCCCCGCGTTTTAACCGCCAAGGGGATTACTCCCTAGTCTCCAGGCACGTGTCAGATATATACATCGATTGCATGTGGATCCGAATTCATATTAATGAT (double strand) [S30/30 nucleosome]” the Kd [4] was 0.0177 nM, the IC50 ([4]; competitor of S31/30 (10 nM), 1 nM H1) was 3.7 nM and the Kd [2] was 1.85 nM. It also gave a Kd [3] of 124 nM and a Kd [1] of 0.039 nM.

“ATCTAATACTAGGACCCTATACGCGGCCGCATCGGAGAATCCCGGTGCCGAGGCCGCTCAATTGGTCGTAGACAGCTCTAGCACCGCTTAAACGCACGTACGCGCTGTCCCCCGCGTTTTAACCGCCAAGGGGATTACTCCCTAGTCTCCAGGCACGTGTCAGATATATACATCGATTGCATGTGGATCCGAATTCATATTAATGAT (double strand) [S30/30-H2A.Z nucleosome]” showed a Kd [1, 9] of 0.051 nM.

“CGAGCCAGGCCTGAGAATCCGGTGCCGAGGCCGCTCAATTGGTCGTAGACAGCTCTAGCACCGCTTAAACGCACGTACGCGCTGTCCCCCGCGTTTTAACCGCCAAGGGGATTACTCCCTAGTCTCCAGGCACGTGTCAGATATATACATCCAGGCCTTGTGTCG (double strand) [S7/11 nucleosome]” was tested, and the Kd [4] was 1.73 nM, the Kd [2] was 3.26 nM and the Kd [3] was 73.6 nM.

“CGCATCGGAGAATCCCGGTGCCGAGGCCGCTCAATTGGTCGTAGACAGCTCTAGCACCGCTTAAACGCACGTACGCGCTGTCCCCCGCGTTTTAACCGCCAAGGGGATTACTCCCTAGTCTCCAGGCACGTGTCAGATATATACATCGATTGCATGTGGATCCGAATTCATATTAATGAT (double strand) [A3/30 nucleosome]” gave a Kd [5] of 0.112 nM, a Kd [6] of 10.4 nM and a Kd [7] of 248 nM.

Work on “GATCTAATACTAGGACCCTATACGCGGCCGCATCGGAGAATCCCGGTGCCGAGGCCGCTCAATTGGTCGTAGACAGCTCTAGCACCGCTTAAACGCACGTACGCGCTGTCCCCCGCGTTTTAACCGCCAAGGGGATTACTCCCTAGTCTCCAGGCACGTGTCAGATATATACATCGATTGCATGTGGATCCGAATTCATATTAATGAT (double strand) [S31/30 nucleosome]” yielded a Kd [5] of 0.0484 nM, a Kd [6] of 0.983 nM and a Kd [7] of 86.3 nM.

For LE-Tri trinucleosome, the Kd ([1]; stoichiometry 3 H1 per trimer) was 0.046 nM and the Kd [8] was 0.047 nM.

NLE-Tri trinucleosome gave a Kd ([1]; stoichiometry 1 H1 per trimer) of 0.042 nM and a Kd [8] of 0.0638 nM.

Substance NLE-Tri-H2A.Z trinucleosome has a Kd [1, 9] of 0.023 nM.

For “TCGGGATACGCGGCCGCCCTGGAGAATCCCGGTGCCGAGGCCGCTCAATTGGTCGTAGACAGCTCTAGCACCGCTTAAACGCACGTACGCGCTGTCCCCCGCGTTTTAACCGCCAAGGGGATTACTCCCTAGTCTCCAGGCACGTGTCAGATATATACATCCTGTGCATGTATTGAC (double strand) [S17/13 nucleosome]”, the Kd [4] was 0.23 nM, the Kd [2] was 0.947 nM and the Kd [3] was 26.5 nM.
